{"source": "the RNAGym collection of RNA variant scans (doi:10.7554/elife.80360)", "parents": {"B1": {"name": "CPEB3 Ribozyme (parent)", "chain": "GGGGGCCACAGCAGAAGCGUUCACGUCGCGGCCCCUGUCAGAUUCUGGUGAAUCUGCGAAUUCUGCUGU"}}, "data": [{"variants_of": "B1", "assay": "self-cleavage, relative activity (ratio to wild type); higher = more cleavage; co-transcriptional", "values": [{"variant": "G17U G30A", "self-cleavage": 0.184}, {"variant": "C18A C34G", "self-cleavage": 0.14}, {"variant": "C18A C34U", "self-cleavage": 0.16}, {"variant": "G17C U69C", "self-cleavage": 0.284}, {"variant": "C18A G25A", "self-cleavage": 0.163}, {"variant": "G17A G48A", "self-cleavage": 0.611}, {"variant": "G17A G48U", "self-cleavage": 0.614}, {"variant": "C18A A42G", "self-cleavage": 0.208}, {"variant": "G17U U53C", "self-cleavage": 0.188}, {"variant": "C18A G41A", "self-cleavage": 0.156}, {"variant": "C18A U53A", "self-cleavage": 0.188}, {"variant": "C18A U53G", "self-cleavage": 0.17}, {"variant": "A16G U38G", "self-cleavage": 0.143}, {"variant": "G17U U44G", "self-cleavage": 0.31}, {"variant": "G17A C33G", "self-cleavage": 0.188}, {"variant": "G17A C33A", "self-cleavage": 0.21}, {"variant": "G17A U43G", "self-cleavage": 0.177}, {"variant": "G17A U43C", "self-cleavage": 0.336}, {"variant": "G17A U43A", "self-cleavage": 0.253}, {"variant": "G17C U55A", "self-cleavage": 0.177}, {"variant": "G17C G37U", "self-cleavage": 0.107}, {"variant": "C18G U38A", "self-cleavage": 0.158}, {"variant": "G17U C45A", "self-cleavage": 0.447}, {"variant": "A16U U20G", "self-cleavage": 0.108}, {"variant": "A16U A51C", "self-cleavage": 0.71}, {"variant": "G17C U67A", "self-cleavage": 0.204}, {"variant": "A16U C45U", "self-cleavage": 0.893}, {"variant": "A16U C45G", "self-cleavage": 0.839}, {"variant": "A16U U38G", "self-cleavage": 0.272}, {"variant": "G17A C29G", "self-cleavage": 0.749}, {"variant": "G17C U53C", "self-cleavage": 0.134}, {"variant": "G17C U53A", "self-cleavage": 0.144}, {"variant": "G17U", "self-cleavage": 0.643}, {"variant": "G17A", "self-cleavage": 0.592}, {"variant": "G17C", "self-cleavage": 0.166}, {"variant": "C18A U43C", "self-cleavage": 0.161}, {"variant": "G17U U55C", "self-cleavage": 0.227}, {"variant": "A16U G48U", "self-cleavage": 0.907}, {"variant": "C18A G65C", "self-cleavage": 0.217}, {"variant": "G17C C57G", "self-cleavage": 0.0859}, {"variant": "G17C U21A", "self-cleavage": 0.116}, {"variant": "A16G U67A", "self-cleavage": 0.907}, {"variant": "C18A C33A", "self-cleavage": 0.153}, {"variant": "C18U A42U", "self-cleavage": 0.687}, {"variant": "C18G A23G", "self-cleavage": 0.0901}, {"variant": "C18G A23U", "self-cleavage": 0.22}, {"variant": "C18A C66U", "self-cleavage": 0.153}, {"variant": "C18A C66G", "self-cleavage": 0.147}, {"variant": "C18A C66A", "self-cleavage": 0.13}, {"variant": "C18G C22U", "self-cleavage": 0.192}, {"variant": "A16U A23C", "self-cleavage": 0.701}, {"variant": "C18A C57U", "self-cleavage": 0.157}, {"variant": "C18A C57G", "self-cleavage": 0.114}, {"variant": "C18G G68U", "self-cleavage": 0.311}, {"variant": "C18G U21A", "self-cleavage": 0.217}, {"variant": "G17A U26A", "self-cleavage": 0.349}, {"variant": "C18G U20A", "self-cleavage": 0.0787}, {"variant": "G17A G37U", "self-cleavage": 0.146}, {"variant": "G17A C34G", "self-cleavage": 0.197}, {"variant": "C18A G58C", "self-cleavage": 0.193}, {"variant": "G17U U21C", "self-cleavage": 0.14}, {"variant": "G17C C29G", "self-cleavage": 0.931}, {"variant": "G17C C29U", "self-cleavage": 0.199}, {"variant": "G17U U69G", "self-cleavage": 0.768}, {"variant": "G17U U69A", "self-cleavage": 0.675}, {"variant": "A16G U53A", "self-cleavage": 0.752}, {"variant": "A16G U53G", "self-cleavage": 0.784}, {"variant": "G17U A40C", "self-cleavage": 0.147}, {"variant": "G17U A40G", "self-cleavage": 0.352}, {"variant": "A16U C54G", "self-cleavage": 0.662}, {"variant": "A16U C54A", "self-cleavage": 0.637}, {"variant": "A16U C54U", "self-cleavage": 0.895}, {"variant": "G17U G47U", "self-cleavage": 0.661}, {"variant": "G17U C57G", "self-cleavage": 0.16}, {"variant": "G17U C57A", "self-cleavage": 0.192}, {"variant": "C18A C29A", "self-cleavage": 0.127}, {"variant": "C18A C29U", "self-cleavage": 0.0504}, {"variant": "C18A U46C", "self-cleavage": 0.228}, {"variant": "C18G C66G", "self-cleavage": 0.0954}, {"variant": "C18G C66U", "self-cleavage": 0.215}, {"variant": "A16G U46A", "self-cleavage": 0.948}, {"variant": "A16U U36G", "self-cleavage": 0.111}, {"variant": "C18G C63G", "self-cleavage": 0.104}, {"variant": "G17C U36C", "self-cleavage": 0.118}, {"variant": "A16U C22U", "self-cleavage": 0.168}, {"variant": "A16U C22G", "self-cleavage": 0.161}, {"variant": "C18G G25A", "self-cleavage": 0.174}, {"variant": "A16U G65U", "self-cleavage": 0.4}, {"variant": "A16U G65C", "self-cleavage": 0.462}, {"variant": "A16U G25A", "self-cleavage": 0.206}, {"variant": "A16U G25U", "self-cleavage": 0.134}, {"variant": "C18G U55G", "self-cleavage": 0.175}, {"variant": "A16G U43G", "self-cleavage": 0.708}, {"variant": "C18G U46G", "self-cleavage": 0.226}, {"variant": "G17A C22U", "self-cleavage": 0.148}, {"variant": "G17U C39U", "self-cleavage": 0.278}, {"variant": "G17A A59U", "self-cleavage": 0.246}, {"variant": "G17A A59C", "self-cleavage": 0.308}, {"variant": "G17U G19C", "self-cleavage": 0.16}, {"variant": "A16U A42U", "self-cleavage": 0.82}, {"variant": "C18A U69C", "self-cleavage": 0.517}, {"variant": "G17U U43A", "self-cleavage": 0.218}, {"variant": "G17U U43G", "self-cleavage": 0.163}, {"variant": "C18G A51U", "self-cleavage": 0.207}, {"variant": "C18G A51G", "self-cleavage": 0.184}, {"variant": "G17U U38C", "self-cleavage": 0.413}, {"variant": "A16U U62A", "self-cleavage": 0.74}, {"variant": "A16G U44C", "self-cleavage": 0.734}, {"variant": "A16G U44G", "self-cleavage": 0.84}, {"variant": "C18A U26G", "self-cleavage": 0.118}, {"variant": "C18A U26C", "self-cleavage": 0.17}, {"variant": "G17C A51C", "self-cleavage": 0.165}, {"variant": "G17C G41A", "self-cleavage": 0.136}, {"variant": "G17U A52U", "self-cleavage": 0.429}, {"variant": "A16G U49A", "self-cleavage": 0.598}, {"variant": "A16G U49C", "self-cleavage": 0.854}, {"variant": "G17A U61A", "self-cleavage": 0.231}, {"variant": "G17A U61C", "self-cleavage": 0.264}, {"variant": "C18G G58A", "self-cleavage": 0.104}, {"variant": "G17U U64A", "self-cleavage": 0.201}, {"variant": "G17U U64G", "self-cleavage": 0.183}, {"variant": "A16U U46A", "self-cleavage": 0.866}, {"variant": "A16U U46G", "self-cleavage": 0.78}, {"variant": "A16U G50A", "self-cleavage": 0.884}, {"variant": "A16U G50C", "self-cleavage": 0.762}, {"variant": "C18G G47C", "self-cleavage": 0.0572}, {"variant": "C18G G47U", "self-cleavage": 0.177}, {"variant": "G17U G28U", "self-cleavage": 0.134}, {"variant": "C18G C57G", "self-cleavage": 0.17}, {"variant": "A16U U43C", "self-cleavage": 0.86}, {"variant": "G17U U61G", "self-cleavage": 0.344}, {"variant": "G17U U61C", "self-cleavage": 0.186}, {"variant": "G17A U67C", "self-cleavage": 0.491}, {"variant": "G17A G47U", "self-cleavage": 0.562}, {"variant": "G17A G56U", "self-cleavage": 0.178}, {"variant": "G17A G56C", "self-cleavage": 0.238}, {"variant": "G17A G56A", "self-cleavage": 0.234}, {"variant": "C18A G48A", "self-cleavage": 0.227}, {"variant": "C18A G48C", "self-cleavage": 0.146}, {"variant": "G17C C45A", "self-cleavage": 0.119}, {"variant": "C18A C54A", "self-cleavage": 0.162}, {"variant": "A16U U53C", "self-cleavage": 0.66}, {"variant": "A16U G19C", "self-cleavage": 0.112}, {"variant": "C18A A23U", "self-cleavage": 0.179}, {"variant": "C18A A23C", "self-cleavage": 0.128}, {"variant": "G17A C45U", "self-cleavage": 0.463}, {"variant": "G17A G30C", "self-cleavage": 0.161}, {"variant": "G17U A59C", "self-cleavage": 0.179}, {"variant": "C18A U49A", "self-cleavage": 0.16}, {"variant": "C18A U49C", "self-cleavage": 0.195}, {"variant": "A16U C57A", "self-cleavage": 0.293}, {"variant": "G17A A60C", "self-cleavage": 0.189}, {"variant": "G17A A60G", "self-cleavage": 0.202}, {"variant": "C18A U20G", "self-cleavage": 0.0591}, {"variant": "C18A U20A", "self-cleavage": 0.193}, {"variant": "G17U C33G", "self-cleavage": 0.224}, {"variant": "G17C C27U", "self-cleavage": 0.16}, {"variant": "G17U U67G", "self-cleavage": 0.627}, {"variant": "G17U U67A", "self-cleavage": 0.513}, {"variant": "G17C A42G", "self-cleavage": 0.128}, {"variant": "G17A U46G", "self-cleavage": 0.591}, {"variant": "G17A U46A", "self-cleavage": 0.634}, {"variant": "C18G C29G", "self-cleavage": 0.187}, {"variant": "C18A U64C", "self-cleavage": 0.14}, {"variant": "C18A U64A", "self-cleavage": 0.108}, {"variant": "C18A U38G", "self-cleavage": 0.212}, {"variant": "C18G U67G", "self-cleavage": 0.229}]}]}
